To fix the notation:
B1: HA–YKT6-WT (full-length, siRNA-resistant) [human] / SNAP29 [human (endogenous in HEK293T)] (parent)
chain 1: MKLYSLSVLYKGEAKVVLLKAAYDVSSFSFFQRSSVQEFMTFTSQLIVERSSKGTRASVKEQDYLCHVYVRNDSLAGVVIADNEYPSRVAFTLLEKVLDEFSKQVDRIDWPVGSPATIHYPALDGHLSRYQNPREADPMTKVQAELDETKIILHNTMESLLERGEKLDDLVSKSEVLGTQSKAFYKTARKQNSCCAIM
chain 2: MSAYPKSYNPFDDDGEDEGARPAPWRDARDLPDGPDAPADRQQYLRQEVLRRAEATAASTSRSLALMYESEKVGVASSEELARQRGVLERTEKMVDKMDQDLKISQKHINSIKSVFGGLVNYFKSKPVETPPEQNGTLTSQPNNRLKEAISTSKEQEAKYQASHPNLRKLDDTDPVPRGAGSAMSTDAYPKNPHLRAYHQKIDSNLDELSMGLGRLKDIALGMQTEIEEQDDILDRLTTKVDKLDVNIKSTERKVRQL

The test covers variants of B1. Put plainly: immunoprecipitation followed by mass spectrometry. As to conditions: with SNAP29 [human (endogenous in HEK293T)], 2 h EBSS and 300 nM Torin 1, read off a plot.
[1] abbreviates: YKT6 siRNA-treated HEK293T WT cells.

In the case of chain 1 T156A, the screen value by setting is: (HEK293T WT cells) 2 log2; under setting [1], 2 log2.
Turning to chain 1 T156E, the screen value by setting is: (HEK293T WT cells) -2.3 log2; under setting [1], -2.3 log2.

The record behind these values is PMC10022743.
